Assays:
[1] = oral semaglutide tablets (RYBELSUS) with SNAC, clinical studies; cited from earlier work
Kkay mice = experiment: Long-term pharmacodynamic study in type 2 diabetes Kkay mice (Example 18); type: in vivo; conditions: subcutaneous, 100 and 300 μg/kg; for Reduction in HbA1c (FIG. 5c): 48 hours after the final administration; for Hypoglycemic effect, blood glucose and AUC (FIGS. 5a-5b): once every 2 days, 16 doses
Description: Compound 5 from Example 5 and Compound 2 from Example 2 were tested on type 2 diabetes Kkay mice. The mice were administered different doses of Compound 5 and Compound 2, at 100 and 300 μg/kg, respectively. The effects of the GLP-1 compounds in the GLP-1 pharmaceutical composition of the present invention on reducing blood glucose levels and HbA1c were measured.
Male Kkay mice, 12-14 weeks old, were housed in suitable cages under barrier conditions with free access to standard food and purified water. The environmental conditions were controlled at a relative humidity of 40%-60% and a temperature of 22° C.-24° C. After an adaptation period of 1-2 weeks, the mice were used for the experiment.
Basal blood glucose levels were assessed on the day of the experiment, and the mice were weighed. Based on random blood glucose and body weight, the diabetic mice were divided into a solvent group or a treatment group. The mice in the treatment group received subcutaneous injections of the GLP-1 compounds at doses of 100 and 300 μg/kg. The solvent consisted of propylene glycol (14 mg/ml), phenol (5.5 mg/ml), and disodium hydrogen phosphate (1.133 mg/ml) at pH 7.4.
Subcutaneous administration was performed at the nape of the neck (50 μl/10 g body weight). The GLP-1 compound in the GLP-1 pharmaceutical composition of the present invention or the solvent were administered at approximately 10:00 am (time 0), once every 2 days for a total of 16 doses. Blood glucose levels in the mice were evaluated at 3 hours, 6 hours, 1 day, and 2 days after the initial administration. HbA1c was measured 48 hours after the final administration using EDTA anticoagulant.

[2] = Chemical stability: related substances by HPLC after storage (Example 17); type: physicochemical
Description: The content of related impurities was determined using high-performance liquid chromatography (HPLC) on a Waters Kromasil 100-3.5-C8 (4.6*250 mm) column. The column temperature was set at 35° C., and the sample chamber temperature was set at 5° C. The elution was performed at a flow rate of 1.0 ml/min. The eluent consisted of the following components: • Phase A: 90 mM potassium dihydrogen phosphate and 10% acetonitrile (v/v), pH 2.4 • Phase B: 75% acetonitrile (v/v)
The gradient was as follows: linear change of 75%/25% A/B to 55%/45% A/B from 0 to 5 minutes, linear change from 5 to 12 minutes to 50%/50% A/B, linear change from 12 to 42 minutes to 40%/60% A/B, linear change from 42 to 60 minutes to 10%/90% A/B, linear change from 60 to 61 minutes to 75%/25% A/B, and steady gradient of 75%/25% A/B from 61 to 70 minutes.
Detection wavelength was set at 214 nm, flow rate at 1.0 ml/min, and injection volume at 15 μl.

Substance	Bioavailability [1]	Reduction in HbA1c (FIG. 5c) (Kkay mice)	Hypoglycemic effect, blood glucose and AUC (FIGS. 5a-5b) (Kkay mice)	Maximum individual impurity % ([2]; 25° C./60% RH, 15 month)	Purity of compound 5 % ([2]; 25° C./60% RH, 15 month)	Total impurities % ([2]; 25° C./60% RH, 15 month)	Maximum individual impurity % ([2]; 30° C./65% RH, 1 month)	Purity of compound 5 % ([2]; 30° C./65% RH, 1 month)	Total impurities % ([2]; 30° C./65% RH, 1 month)	Maximum individual impurity % ([2]; 30° C./65% RH, 2 month)	Purity of compound 5 % ([2]; 30° C./65% RH, 2 month)	Total impurities % ([2]; 30° C./65% RH, 2 month)	Maximum individual impurity % ([2]; 30° C./65% RH, 3 month)	Purity of compound 5 % ([2]; 30° C./65% RH, 3 month)	Total impurities % ([2]; 30° C./65% RH, 3 month)	Maximum individual impurity % ([2]; 30° C./65% RH, time 0)	Purity of compound 5 % ([2]; 30° C./65% RH, time 0)	Total impurities % ([2]; 30° C./65% RH, time 0)
semaglutide	around 1%																	
N-ε^26-[2-(2-[2-(2-[2-(2-[4-(21-carboxyheneicosanoylamino)-4(S) -carboxybutanoylamino]ethoxy)ethoxy]acetylamino)ethoxy]ethoxy)acetyl][Gly8, Arg34]GLP-1-(7-37) peptide [Compound 5]		significant reduction in HbA1c	significant hypoglycemic effects	0.97%	96.14%	3.86%	0.76%	96.85%	3.15%	1.03%	96.67%	3.33%	0.93%	95.19%	4.81%	0.73%	96.5%	3.5%
N-ε^26-[2-(2-[2-(4-[19-carboxynonadecanoylamino]-4(S) -carboxybutanoylamino)ethoxy]ethoxy)acetyl][Gly8, Arg34]GLP-1-(7-37) peptide [Compound 2]		significant reduction in HbA1c	significant hypoglycemic effects															

From patent US20250276043A1, “Pharmaceutical Composition Containing GLP-1 Compound” (Gan & Lee Pharmaceuticals Co., Ltd., priority 2021, published 2025)
